Laboratory results taken from publication PMC5653232 (Cell reports, 2017).

Assays:
Cy3-Cy5-H3K9Cme3-NCP = test: FRET nucleosome unwrapping, Cy3-Cy5-H3K9Cme3-NCP; format: biochemical, human
CHD3 PHD1/2 = test: Tryptophan fluorescence, linked CHD3 PHD1/2 with histone H3 peptides; format: binding; settings: either peptide; apparent Kds measured by tryptophan fluorescence
H3K9Cme3-NCP = test: Fluorescence polarization, CHD3 PHD1/2 with H3K9Cme3-NCP; format: binding, human; settings: read-out: apparent dissociation constant Kd (H3K9Cme3-NCP), 5 nM nucleosomes, 15 mM Tris pH 7.5, 75 mM NaCl, 0.00625% Tween20, 3 mM DTT, three separate experiments

- fold stronger binding of linked PHD1/2 than unlinked individual domains (CHD3 PHD1/2): ~10^2 fold
- Kd (H3K9Cme3-NCP): 1400 nM
B1: CHD3 PHD1/2: natively linked tandem PHD fingers of CHD3, construct PHD1/2 (373–508) (protein)
chain: GYETDHQDYCEVCQQGGEIILCDTCPRAYHLVCLDPELDRAPEGKWSCPHCEKEGVQWEAKEEEEEYEEEGEEEGEKEEEDDHMEYCRVCKDGGELLCCDACISSYHIHCLNPPLPDIPNGEWLCPRCTCPVLKGR
modifications: left off: GST, end not stated, cleaved
- change in FRET efficiency by CHD3 PHD1/2 without LA (Cy3-Cy5-H3K9Cme3-NCP; CHD3 PHD1/2 up to 300 µM): no measurable change in the FRET efficiency
- change in FRET efficiency by CHD3 PHD1/2 with LA (Cy3-Cy5-H3K9Cme3-NCP; LA at a concentration equivalent to the LA S1/2): reduced substantially
